Target: FITC-sCT(22–32) (salmon, FITC label)
Experiment: fluorescence polarisation

B1: RAMP1-CTR.34–141 WT (tethered RAMP1-CTR ECD fusion, AMY1 receptor ECD) (receptor)
chain: TTACQEANYGALLRELCLTQFQVDMEAVGETLWCDWGRTIRSYRELADCTWHMAEKLGCFWPNAEVDRFFLAVHGRYFRSCPISGRAVIEPKPFLYVVGRKKMMDAQYKCYDRMQQLPAYQGEGPYCNRTWDGWLCWDDTPAGVLSYQFCPDYFPDFDPSEKVTKYCDEKGVWFKHPENNRTWSNYTMCNAFTPEK
modifications: N-glycosylated (HEK293S GnTI−, enzyme treatment: none)
- Kd: 280 nM
- pKD: 6.56
